Earlier results in patent publication US8443799B2, “Dry powder inhalation system for transpulmonary administration” (Otsuka Pharmaceutical Co., Ltd., priority 2001, dated 2013).

Conditions: disclosure in WO 95/31479

interferon
deactivation during the spray drying process: about 25%
